In patent publication US20230092787A1 (UNIVERSITY OF VIRGINIA PATENT FOUNDATION, published 2023):

Key:
[1] = target: T1, integrin alphav beta3 (αvβ3), human, on tumor cell lines (human, UniProt P06756 31-1048; P05106 27-788); test: flow cytometry, PE-LM609 on GBM U87 cells
T1 construct: whole, on cells; Endogenous heterodimer on human DIPG and GBM tumor cell lines; also called integrin αvβ3; ITGAV/ITGB3
Procedure: (§1) Human T cell analysis of ex vivo expanded CAR T cells, and T cells isolated from mouse blood, brain, and spleen was performed using antibodies against CD3 (HIT3a), CD4 (OKT4), CD8 (SK1), CD45RO (UCH1.1), CD45RA (H100), CCR7 (G043H7), CD127 (A019D5), PD-1 (EH12.2H7), LAG-3 (11C3C65), TIM-3 (F38-2E2), CD45 (2D1), and TCF-1 (7F11A10) (from BioLegend, San Diego, Calif., United States of America). Expression of integrin αᵥβ₃ CAR was detected using biotinylated protein L (Thermo Fisher Scientific, Waltham, Mass., United States of America) followed by streptavidin-conjugated PE (BioLegend, San Diego, Calif., United States of America). […] Sample data was acquired on a NovoCyte 3005 Flow Cytometer (ACEA Biosciences Inc., San Diego, Calif., United States of America) and analyzed using data analysis software sold under the tradename FLOWJO™ v10 (FlowJo LLC, Ashland, Oreg., United States of America).
(§2) Tumor cell line expression of integrin αᵥβ₃ was measured by flow cytometry. More particularly, cell surface expression of integrin αᵥβ₃ was evaluated by flow cytometry staining with phycoerythrin-conjugated anti-integrin αᵥβ₃ monoclonal antibody (clone LM609) on diffuse intrinsic pontine glioma (DIPG), neuroblastoma, glioblastoma (GBM), triple-negative breast, bladder, rhabdomyosarcoma (RMS), lung, cervical squamous cell carcinoma, and melanoma tumor cell lines. […]

[2] = target: T1, integrin alphav beta3 (αvβ3), human, on …; test: flow cytometry, PE-LM609 on GBM U251 cells
Procedure: as §1, §2

[3] = target: T1, integrin alphav beta3 (αvβ3), human, on …; test: flow cytometry, PE-LM609 on SU-DIPG-17 cells
Procedure: as §1, §2

[4] = target: T1, integrin alphav beta3 (αvβ3), human, on …; test: flow cytometry, PE-LM609 on SU-DIPG-21 cells
Procedure: as §1, §2

[5] = target: T1, integrin alphav beta3 (αvβ3), human, on …; test: flow cytometry, PE-LM609 on SU-DIPG-27 cells
Procedure: as §1, §2

[6] = target: T1, integrin alphav beta3 (αvβ3), human, on …; test: flow cytometry, PE-LM609 on SU-DIPG-36 cells
Procedure: as §1, §2

[7] = target: T1, integrin alphav beta3 (αvβ3), human, on …; test: flow cytometry, PE-LM609 on SU-DIPG-IV cells
Procedure: as §1, §2

[8] = target: T1, integrin alphav beta3 (αvβ3), human, on …; test: flow cytometry, PE-LM609 on SU-DIPG-XIII cells
Procedure: as §1, §2

T1 sequence (P06756 31-1048, chain 1 of 2): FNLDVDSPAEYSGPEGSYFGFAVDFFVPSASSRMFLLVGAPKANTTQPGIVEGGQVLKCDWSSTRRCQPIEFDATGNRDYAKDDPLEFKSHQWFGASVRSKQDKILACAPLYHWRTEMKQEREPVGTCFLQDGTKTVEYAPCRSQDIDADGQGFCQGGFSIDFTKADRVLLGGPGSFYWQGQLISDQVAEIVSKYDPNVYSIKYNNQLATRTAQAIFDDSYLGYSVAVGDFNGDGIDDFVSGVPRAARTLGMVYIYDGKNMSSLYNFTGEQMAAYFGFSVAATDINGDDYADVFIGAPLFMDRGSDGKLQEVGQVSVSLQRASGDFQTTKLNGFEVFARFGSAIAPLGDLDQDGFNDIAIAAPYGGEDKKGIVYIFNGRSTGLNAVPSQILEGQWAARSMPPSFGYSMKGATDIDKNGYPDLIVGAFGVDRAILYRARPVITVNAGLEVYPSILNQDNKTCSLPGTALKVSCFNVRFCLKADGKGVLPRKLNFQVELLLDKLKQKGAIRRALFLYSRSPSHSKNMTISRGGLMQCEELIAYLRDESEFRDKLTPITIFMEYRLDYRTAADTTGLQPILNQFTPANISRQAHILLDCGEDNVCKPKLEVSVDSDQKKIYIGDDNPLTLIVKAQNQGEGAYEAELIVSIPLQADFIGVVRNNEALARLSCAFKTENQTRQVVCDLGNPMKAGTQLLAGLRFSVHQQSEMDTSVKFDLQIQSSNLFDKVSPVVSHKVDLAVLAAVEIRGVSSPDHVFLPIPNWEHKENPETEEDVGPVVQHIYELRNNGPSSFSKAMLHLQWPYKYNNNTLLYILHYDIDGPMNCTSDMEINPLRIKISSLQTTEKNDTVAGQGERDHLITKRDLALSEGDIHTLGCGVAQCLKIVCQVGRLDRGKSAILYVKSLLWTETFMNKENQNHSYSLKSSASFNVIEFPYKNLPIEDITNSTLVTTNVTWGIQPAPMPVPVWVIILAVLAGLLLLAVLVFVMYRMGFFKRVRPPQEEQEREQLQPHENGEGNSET
T1 sequence (P05106 27-788, chain 2 of 2): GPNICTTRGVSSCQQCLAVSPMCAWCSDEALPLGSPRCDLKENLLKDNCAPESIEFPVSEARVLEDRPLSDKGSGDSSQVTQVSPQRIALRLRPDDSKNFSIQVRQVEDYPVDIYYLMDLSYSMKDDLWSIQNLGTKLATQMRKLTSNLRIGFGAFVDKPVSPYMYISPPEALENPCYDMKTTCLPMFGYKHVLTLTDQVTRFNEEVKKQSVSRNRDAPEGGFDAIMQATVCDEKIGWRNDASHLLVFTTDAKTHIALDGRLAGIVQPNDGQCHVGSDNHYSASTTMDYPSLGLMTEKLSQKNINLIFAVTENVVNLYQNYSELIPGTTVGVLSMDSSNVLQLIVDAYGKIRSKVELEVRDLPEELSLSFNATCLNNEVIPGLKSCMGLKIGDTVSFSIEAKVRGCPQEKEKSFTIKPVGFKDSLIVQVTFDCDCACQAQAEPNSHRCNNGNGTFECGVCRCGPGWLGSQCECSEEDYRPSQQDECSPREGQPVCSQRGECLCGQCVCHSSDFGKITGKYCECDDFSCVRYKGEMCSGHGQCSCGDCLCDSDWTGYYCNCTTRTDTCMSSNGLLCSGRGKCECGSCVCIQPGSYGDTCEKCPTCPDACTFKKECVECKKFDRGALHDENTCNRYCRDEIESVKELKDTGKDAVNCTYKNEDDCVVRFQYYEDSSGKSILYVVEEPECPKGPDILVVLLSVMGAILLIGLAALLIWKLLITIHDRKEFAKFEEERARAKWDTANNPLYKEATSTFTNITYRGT

B1: phycoerythrin-conjugated anti-integrin αvβ3 monoclonal antibody (clone LM609) (antibody, V domains shown)
VH: EVQLEESGGGLVKPGGSLKLSCAASGFAFSSYDMSWVRQIPEKRLEWVAKVSSGGGSTYYLDTVQGRFTISRDNAKNTLYLQMSSLNSEDTAMYYCARHNYGSFAYWGQGTLVTVSA
VL: ELVMTQTPATLSVTPGDSVSLSCRASQSISNHLHWYQQKSHESPRLLIKYASQSISGIPSRFSGSGSGTDFTLSINSVETEDFGMYFCQQSNSWPHTFGGGTKLEIK
notes: Bought reagent (Millipore Sigma), conjugated to phycoerythrin; also called PE-conjugated anti-integrin αvβ3 antibody (LM609; Millipore Sigma)
- MFI ratio (MFI/MFI isotype control) [1]: 17
- MFI ratio (MFI/MFI isotype control) [2]: 2
- MFI ratio (MFI/MFI isotype control) [3]: 5
- MFI ratio (MFI/MFI isotype control) [4]: 6
- MFI ratio (MFI/MFI isotype control) [5]: 4
- MFI ratio (MFI/MFI isotype control) [6]: 16
- MFI ratio (MFI/MFI isotype control) [7]: 8
- MFI ratio (MFI/MFI isotype control) [8]: 5
